Experimental data published in the supplement of paper PMC9732359.
± gives the uncertainty stated by the source.

experiment: protein stability index of a GFP-peptide fusion (yeast GPS) (PSI 1-4); higher = more stable; sorted into four equal gates, so the index is relative within each strain; conditions: doa10∆
In short: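 Mid-log yeast cultures in leucine-free medium, carrying a pooled plasmid library, were sorted into four equal gates by their GFP/Cherry fluorescence ratio. Each plasmid expressed Cherry along with GFP fused upstream of a tiled 17-residue yeast protein peptide. Plasmids recovered from each gate were PCR-amplified and Illumina-sequenced, with reads assigned to strains by barcodes. The protein stability index was obtained by summing each gate's read frequency weighted by its gate number.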

Sequence	protein stability index
NPLWNAIIVAGVQSNGD [PRE4]	1.25 ± 0.054
NPNNVNVQTQYREAPVI [RET1]	2.5 ± 0.085
NPPSYQSSEDVITIKSR [RPB7]	2.78 ± 0.17

same assay, conditions: pdr5∆

Sequence	protein stability index
MYQEWEDETVKVAQLRQ [NSL1]	3.47 ± 0.076
NADFQKPWFATVNGQAR [FAS1]	2.37 ± 0.11
NAEKYFNNGDDDDYGDE [RPC31]	2.67 ± 0.13
NAQLSCITKQDGFKIYD [PUP2]	3.17 ± 0.12
NATLTPNDSNDEKVTIL [SWI1]	3.22 ± 0.061
NDFFIIYYTPAFFHLFA [YJL039C/NUP192]	1.57 ± 0.043
NDILVLMESEREARRLR [RPS28A]	2.94 ± 0.079
NDIPLGSGQPDNDTVVT [SRB8]	3.18 ± 0.16
NDKQGFPMKQGVLLPTR [RPS6A]	3.06 ± 0.14
NDLDEDDIYDISLLKNR [RPN4]	3.2 ± 0.11
NDNDITVKENESDSKLQ [UBP6]	3.24 ± 0.096
NDNENIVNNDLPTTVVS [MED2]	2.8 ± 0.05
NDSENNSSEEDKKKGQN [ITC1]	2.53 ± 0.11
NDVQGIDDVQTIKVVKR [RPP1]	2.62 ± 0.066
NDWKLETERLISQSQLG [SIN4]	3.11 ± 0.14
NECIEERVPKTQLDKLR [SMB1]	3.07 ± 0.062
NECVCTPYNADFDGDEM [RPO31]	3.18 ± 0.069
NEGAASSNPQSAYVKAF [SMC1]	2.6 ± 0.053
NEIESRQLTSLGSKKEL [SNU114]	3.28 ± 0.078
NELLDLTESQTETYISD [RPN5]	3.35 ± 0.069
NEVSLAIKKSSMKMELL [SMC2]	2.49 ± 0.082
NEYVIKTPVFTTGGDYI [YMR129W/POM152]	2.07 ± 0.053
NEYYPMCEQALSALFTI [YCS4]	2.65 ± 0.088
NFADKYDEVKKHWGGGI [RPL8A]	3.2 ± 0.12
NFEAALFAKSSSKKEYM [GAL11]	2.52 ± 0.084
NFENDNENNSNGGEDTS [REC8]	2.64 ± 0.27

Sequence	protein stability index
NFFQAPQDYVLERVKRI [YML031W/NDC1]	2.62 ± 0.045
NFGFGIDEHIDLGIKYD [RPL11A]	2.51 ± 0.16
NFLDAPGHVNFMDETAV [SNU114]	3.28 ± 0.11
NFQDLSYLSETLISRIS [YML103C/NUP188]	2.51 ± 0.079
NFSGLNGGITNTATNAL [YOR098C/NUP1]	2.91 ± 0.13
NGFMHAGTTDNSFIKAN [RPN2]	1.33 ± 0.045
NGFSFTKFNHNKEKSNS [YOR098C/NUP1]	2.98 ± 0.075
NGGITNTATNALRPSDI [YOR098C/NUP1]	2.69 ± 0.14
NGGNSVITLAEYEKRNH [SRP68]	3.28 ± 0.14
NGIIMNGTLIGCVSYSP [YMR153W/NUP53]	1.95 ± 0.076
NGIVDQVLVTTNQDGLK [RPB2]	2.18 ± 0.1
NGLKDQLNEERSRYRRE [YIL149C/MLP2]	2.5 ± 0.22
NHFKDTYGFSILDIVIN [FAS1]	3.28 ± 0.11
NHKSKDNNNGDDDDEDD [SKP1]	3.14 ± 0.069
NIAQMIPGMSNMMNQVG [SRP54]	2.6 ± 0.076
NIETGENHNGQSISNEN [SWI3]	3.14 ± 0.12
NIGQQQVKKPRKQRVKK [SWI1]	3.35 ± 0.13
NIIEKAMDYAISIENIV [RPN12]	3.29 ± 0.088
NIKHKHTSIRETLENGE [SMC2]	1.74 ± 0.21
NILKILSSLILKIFQEQ [SRB8]	1.99 ± 0.05
NINNNINSTKNGKDNNN [MED2]	3.26 ± 0.053
NIQKKQPAKEKGVTEKD [RRP6]	3.17 ± 0.045
NISFYKLHVNWNLNATK [SIN4]	2.23 ± 0.077
NITDNLFQELSKVVDDM [GRR1]	2.62 ± 0.083
NIVMDSKQNGIEQSITK [SSN8]	2.59 ± 0.28
NIWLNNKIINWEISNPD [NUT1]	2.56 ± 0.057

Sequence	protein stability index
NKKDKKKEEEEQLSEED [RPN1]	3.76 ± 0.23
NKKRPSSKKVFSSNLSY [YOR098C/NUP1]	2.4 ± 0.063
NKNIDIGLLNKSKSSLD [RPN2]	2.22 ± 0.097
NKNNNNRHNLLNDVVSF [SWI1]	1.98 ± 0.036
NKNQDAFEAELSNIPLL [ARP9]	3.23 ± 0.086
NKPIKRMLSSILDINVS [SWP82]	2.6 ± 0.041
NKRLCDEIATIQSKRLR [RPS17A]	2.94 ± 0.063
NKRLDVIDGKLPFMQNA [YDL088C/ASM4]	2.79 ± 0.053
NKSLKYVIHGIELLSDL [LIN1]	2.94 ± 0.096
NKSSVRPTGGANMATVP [MED6]	2.79 ± 0.074
NLANEQPVLEKPLKKGS [SIR4]	2.83 ± 0.093
NLDIAKDLIRTDEALFE [MED4]	3.29 ± 0.19
NLKFLKNKDSLVSNPHE [SRB4]	2.51 ± 0.076
NLLKNFISSNDAFNMLS [SNF6]	2 ± 0.061
NLPGNITVVLGVNGYIW [RRP4]	2.64 ± 0.093
NLQKIDKDSEELDSKTR [MED4]	2.98 ± 0.071
NLQPASVINNYLREDQM [NUT1]	3.08 ± 0.099
NLQQQQQQQIQVPLQQT [YGR119C/NUP57]	2.76 ± 0.078
NLTEFVQMDKIRKIVRK [AAR2]	2.43 ± 0.1
NLTSEIEDLRADINSNR [YOR098C/NUP1]	3.07 ± 0.12
NLTYSSGLFVDVKKRTY [RPB2]	2.58 ± 0.051
NLVVSGPPQSLYGLNLT [FAS1]	2.35 ± 0.059
NLYDGAEHKYMPYTINE [BRR2]	3.05 ± 0.071
NLYTPKAEMPPEHLRKI [PRP8]	2.38 ± 0.062
NMVLENVKELWTEKKGK [SMD2]	2.67 ± 0.098
NNDDNGNNNNNNSGNDN [MED2]	2.99 ± 0.04

Sequence	protein stability index
NNGLPECQVIAAEGLCK [YCG1]	3.47 ± 0.16
NNGVSNLWKNIFLSKEN [COR1]	2.9 ± 0.059
NNKIITLVKGPKEPRLK [SKI6]	2.86 ± 0.16
NNLEKYPFRYKTWLRNQ [RTT102]	3.39 ± 0.053
NNLHELWALLNFLLPDI [ISW2]	2.07 ± 0.049
NNLSSMNLDFDIEEGPI [MCD1]	3.15 ± 0.042
NNNSNNIMSASGGLFGN [YGL172W/NUP49]	3.02 ± 0.041
NNNVTAVPAATPANTNN [SWI1]	3.08 ± 0.046
NNPPKPQKPVPLNVLQD [SNF2]	3.38 ± 0.06
NNRISNANEISANTNNT [SWP82]	2.25 ± 0.049
NNRRRSRKRGGENVFLK [SIR3]	3.23 ± 0.084
NNSANNNAHSSDLGTVV [YMR153W/NUP53]	2.62 ± 0.1
NNSDDEDVDDEELDITP [IRR1]	3.46 ± 0.11
NNSKSRYPMNLLEFIID [ECM29]	2.69 ± 0.052
NNSSITLRCSVVEACGN [YCS4]	1.23 ± 0.056
NNVKQMVMAGSKGSFIN [RPO21]	1.78 ± 0.095
NNVSFNAKDIQIPVYDT [FAS1]	2.49 ± 0.046
NNYNSRIQLMNDFTTKL [MED1]	2.85 ± 0.075
NPHQDLQAQDRAHRIGQ [SNF2]	3.04 ± 0.074
NPIANHTVTNSPNPTLQ [SNF5]	2.83 ± 0.046
NPIDIKRRFGELMDRTG [RPP1]	3.19 ± 0.18
NPLKNKQVLLRLNPYAK [RPL4A]	1.21 ± 0.11
NPLWNAIIVAGVQSNGD [PRE4]	1.37 ± 0.044
